# T1: IL-2Rβ ectodomain (SPR, Figure 4A) (human, UniProt P14784 27-240)
# T1 chain: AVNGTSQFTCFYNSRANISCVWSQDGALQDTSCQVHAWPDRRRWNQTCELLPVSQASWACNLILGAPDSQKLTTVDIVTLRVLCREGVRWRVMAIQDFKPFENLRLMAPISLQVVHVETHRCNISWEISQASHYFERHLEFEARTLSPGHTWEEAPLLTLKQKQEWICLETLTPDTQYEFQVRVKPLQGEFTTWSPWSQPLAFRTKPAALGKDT
# B1: Super-2 (ligand)
# chain: APTSSSTKKTQLQLEHLLLDLQMILNGINNYKNPKLTRMLTFKFYMPKKATELKHLQCLEEELKPLEEVLNLAQSKNFHFDPRDVVSNINVFVLELKGSETTFMCEYADETATIVEFLNRWITFCQSIISTLT
# Target: T1, IL-2Rβ ectodomain (SPR, Figure 4A)
# Test: SPR
binder,measurement,value
B1,Kd,3.3 nM

# Reference: publication PMC6755802 (2019)
